Data published in PMC5760199, “Structural insights into the assembly and polyA signal recognition mechanism of the human CPSF complex”.

Columns and labels:
[1] = target: CPSF160FL;WDR33 M1-K410;CPSF30 ZF1-5;Fip1CD (Homo sapiens;Homo sapiens;Homo …, UniProt Q10570;Q9C0J8;O95639-3;Q6UN15-4 1-1443;1-410;1-169;130-195, |||); test: fluorescence polarization; 20 mM Tris pH 7.5, 150 mM NaCl, 1 mM DTT, 0.05% Tween 20, 25 C, 0.1 nM labelled RNA; settings: protein: recombinant;recombinant;recombinant;recombinant; tags: His6 (438B vector; Ni-NTA and Streptactin purified);;; copies: 1;1;1;1; label: 5' Atto532
CPSF160FL;WDR33 M1-K410;CPSF30 ZF1-5;Fip1CD, sequence (Q10570 whole entry, chain 1 of 4): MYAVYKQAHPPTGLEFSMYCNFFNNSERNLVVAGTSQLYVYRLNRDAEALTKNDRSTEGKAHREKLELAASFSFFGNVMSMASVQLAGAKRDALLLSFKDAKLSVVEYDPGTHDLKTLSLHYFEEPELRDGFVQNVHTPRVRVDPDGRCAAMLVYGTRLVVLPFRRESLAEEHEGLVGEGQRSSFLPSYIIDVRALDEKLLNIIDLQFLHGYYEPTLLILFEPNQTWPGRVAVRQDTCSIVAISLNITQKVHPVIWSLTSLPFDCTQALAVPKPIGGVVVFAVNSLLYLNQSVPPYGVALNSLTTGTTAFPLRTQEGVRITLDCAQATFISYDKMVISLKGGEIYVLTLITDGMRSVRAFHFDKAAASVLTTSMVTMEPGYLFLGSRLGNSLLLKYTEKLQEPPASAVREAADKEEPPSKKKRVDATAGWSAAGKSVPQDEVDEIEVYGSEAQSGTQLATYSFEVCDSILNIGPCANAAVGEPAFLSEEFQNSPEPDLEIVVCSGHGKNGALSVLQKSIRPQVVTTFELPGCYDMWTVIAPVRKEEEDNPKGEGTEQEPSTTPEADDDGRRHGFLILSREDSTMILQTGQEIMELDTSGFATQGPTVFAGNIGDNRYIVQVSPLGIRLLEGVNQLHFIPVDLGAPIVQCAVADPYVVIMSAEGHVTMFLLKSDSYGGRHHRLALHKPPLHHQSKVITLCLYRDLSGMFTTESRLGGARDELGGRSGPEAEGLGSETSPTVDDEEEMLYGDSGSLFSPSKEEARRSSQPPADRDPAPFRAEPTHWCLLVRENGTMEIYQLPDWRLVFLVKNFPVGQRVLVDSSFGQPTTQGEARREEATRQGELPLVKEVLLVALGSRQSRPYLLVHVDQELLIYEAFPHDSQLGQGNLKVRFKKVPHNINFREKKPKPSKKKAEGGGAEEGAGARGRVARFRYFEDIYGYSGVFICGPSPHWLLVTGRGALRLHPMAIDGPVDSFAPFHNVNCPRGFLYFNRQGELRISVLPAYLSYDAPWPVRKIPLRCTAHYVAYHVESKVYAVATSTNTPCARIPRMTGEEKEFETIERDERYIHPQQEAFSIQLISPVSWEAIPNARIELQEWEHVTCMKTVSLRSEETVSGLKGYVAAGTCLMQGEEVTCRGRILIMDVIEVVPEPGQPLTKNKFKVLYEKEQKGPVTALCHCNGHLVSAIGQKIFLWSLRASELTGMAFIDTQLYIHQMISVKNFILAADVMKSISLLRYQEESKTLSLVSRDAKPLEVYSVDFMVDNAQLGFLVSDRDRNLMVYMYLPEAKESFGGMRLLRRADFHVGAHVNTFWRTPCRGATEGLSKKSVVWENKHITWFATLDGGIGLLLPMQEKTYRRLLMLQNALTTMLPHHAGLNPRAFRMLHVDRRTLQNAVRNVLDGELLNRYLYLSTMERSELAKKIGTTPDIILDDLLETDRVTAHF
CPSF160FL;WDR33 M1-K410;CPSF30 ZF1-5;Fip1CD, sequence (Q9C0J8 1-410, chain 2 of 4): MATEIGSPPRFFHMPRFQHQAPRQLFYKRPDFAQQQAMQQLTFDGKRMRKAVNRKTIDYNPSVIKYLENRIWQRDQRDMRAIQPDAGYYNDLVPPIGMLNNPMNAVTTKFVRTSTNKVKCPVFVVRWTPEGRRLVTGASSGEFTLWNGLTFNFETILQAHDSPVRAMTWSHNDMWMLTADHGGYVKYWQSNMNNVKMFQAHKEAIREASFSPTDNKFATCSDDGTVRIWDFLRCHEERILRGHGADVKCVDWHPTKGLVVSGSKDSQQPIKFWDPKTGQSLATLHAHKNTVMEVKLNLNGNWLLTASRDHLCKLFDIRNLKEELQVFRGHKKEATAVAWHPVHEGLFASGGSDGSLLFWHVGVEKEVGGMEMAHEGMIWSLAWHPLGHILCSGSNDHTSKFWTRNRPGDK
CPSF160FL;WDR33 M1-K410;CPSF30 ZF1-5;Fip1CD, sequence (O95639 1-169, chain 3 of 4): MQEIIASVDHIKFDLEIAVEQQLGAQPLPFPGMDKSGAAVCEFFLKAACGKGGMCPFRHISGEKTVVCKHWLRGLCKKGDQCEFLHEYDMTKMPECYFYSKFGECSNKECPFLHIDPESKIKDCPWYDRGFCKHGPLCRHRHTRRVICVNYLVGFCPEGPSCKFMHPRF
CPSF160FL;WDR33 M1-K410;CPSF30 ZF1-5;Fip1CD, sequence (Q6UN15 145-210, chain 4 of 4): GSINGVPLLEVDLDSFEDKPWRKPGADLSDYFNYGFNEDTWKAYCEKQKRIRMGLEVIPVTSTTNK

[2] = target: CPSF160FL;WDR33 M1-K410;CPSF30 ZF1-3 (Homo sapiens;Homo sapiens;Homo sapiens, UniProt Q10570;Q9C0J8;O95639-3 1-1443;1-410;1-117, ||); test: as above; settings: protein: recombinant;recombinant;recombinant; tags: His6 (438B vector; Ni-NTA and Streptactin purified);; copies: 1;1;1; label: 5' Atto532
CPSF160FL;WDR33 M1-K410;CPSF30 ZF1-3, sequence (Q10570 whole entry, chain 1 of 3): as the sequence (Q10570 whole entry, chain 1 of 4) above
CPSF160FL;WDR33 M1-K410;CPSF30 ZF1-3, sequence (Q9C0J8 1-410, chain 2 of 3): as the sequence (Q9C0J8 1-410, chain 2 of 4) above
CPSF160FL;WDR33 M1-K410;CPSF30 ZF1-3, sequence (O95639 1-117, chain 3 of 3): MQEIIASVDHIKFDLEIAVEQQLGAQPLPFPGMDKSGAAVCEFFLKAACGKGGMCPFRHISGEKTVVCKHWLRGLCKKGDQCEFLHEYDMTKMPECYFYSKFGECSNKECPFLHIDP

[3] = target: T1, CPSF160FL;WDR33 M1-K410;CPSF30FL;Fip1FL (Homo sapiens;Homo sapiens;Homo …, UniProt Q10570;Q9C0J8;O95639-3;Q6UN15-4 1-1443;1-410;1-243;1-378, |||); test: fluorescence polarization; two repeats; 20 mM Tris pH 7.5, 150 mM NaCl, 1 mM DTT, 0.05% Tween 20, 25 C, 0.1 nM labelled RNA; settings: protein: recombinant;recombinant;recombinant;recombinant; tags: His6 (438B vector; Ni-NTA and Streptactin purified);;; copies: 1;1;1;1; label: 5' Atto532
T1 sequence (Q10570 whole entry, chain 1 of 4): as the sequence (Q10570 whole entry, chain 1 of 4) above
T1 sequence (Q9C0J8 1-410, chain 2 of 4): as the sequence (Q9C0J8 1-410, chain 2 of 4) above
T1 sequence (O95639 other isoform, or with tags, fused parts or gaps |||, chain 3 of 4): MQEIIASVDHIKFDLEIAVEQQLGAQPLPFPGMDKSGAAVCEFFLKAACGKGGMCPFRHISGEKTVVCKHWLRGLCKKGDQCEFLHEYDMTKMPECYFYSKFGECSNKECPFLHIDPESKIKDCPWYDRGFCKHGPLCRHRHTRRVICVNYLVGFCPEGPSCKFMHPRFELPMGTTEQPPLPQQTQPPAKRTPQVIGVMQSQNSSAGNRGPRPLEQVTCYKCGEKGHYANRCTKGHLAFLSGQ
T1 sequence (Q6UN15 other isoform, or with tags, fused parts or gaps |||, chain 4 of 4): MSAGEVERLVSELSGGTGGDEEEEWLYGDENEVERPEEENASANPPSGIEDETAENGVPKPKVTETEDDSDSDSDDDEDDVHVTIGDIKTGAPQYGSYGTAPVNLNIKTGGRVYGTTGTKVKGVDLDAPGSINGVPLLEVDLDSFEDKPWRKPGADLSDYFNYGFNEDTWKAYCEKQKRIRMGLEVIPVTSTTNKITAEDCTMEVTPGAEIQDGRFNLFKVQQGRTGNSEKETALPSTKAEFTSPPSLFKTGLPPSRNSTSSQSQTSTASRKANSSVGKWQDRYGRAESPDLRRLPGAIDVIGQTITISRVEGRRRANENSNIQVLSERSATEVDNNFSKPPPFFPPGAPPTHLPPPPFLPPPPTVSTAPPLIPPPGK

[4] = target: CPSF160FL;WDR33 M1-K410 K46A/R47A;CPSF30 ZF1-3 (Homo sapiens;Homo sapiens;Homo sapiens, UniProt Q10570;Q9C0J8;O95639-3 1-1443;1-410;1-117, |K46A;R47A|); test: fluorescence polarization; 20 mM Tris pH 7.5, 150 mM NaCl, 1 mM DTT, 0.05% Tween 20, 25 C, 0.1 nM labelled RNA; settings: protein: recombinant;recombinant;recombinant; tags: His6 (438B vector); copies: 1;1;1; label: 5' Atto532
CPSF160FL;WDR33 M1-K410 K46A/R47A;CPSF30 ZF1-3, sequence (Q10570 whole entry, chain 1 of 3): as the sequence (Q10570 whole entry, chain 1 of 4) above
CPSF160FL;WDR33 M1-K410 K46A/R47A;CPSF30 ZF1-3, sequence (Q9C0J8 1-410 K46A/R47A, chain 2 of 3): as the sequence (Q9C0J8 1-410, chain 2 of 4) above, with K46A, R47A counted along it
CPSF160FL;WDR33 M1-K410 K46A/R47A;CPSF30 ZF1-3, sequence (O95639 1-117, stated change not applied, chain 3 of 3): as the sequence (O95639 1-117, chain 3 of 3) above

[5] = target: CPSF160FL;WDR33 M1-K410 R49A/K50A;CPSF30 ZF1-3 (Homo sapiens;Homo sapiens;Homo sapiens, UniProt Q10570;Q9C0J8;O95639-3 1-1443;1-410;1-117, |R49A;K50A|); test: as above; settings: protein: recombinant;recombinant;recombinant; tags: His6 (438B vector); copies: 1;1;1; label: 5' Atto532
CPSF160FL;WDR33 M1-K410 R49A/K50A;CPSF30 ZF1-3, sequence (Q10570 whole entry, chain 1 of 3): as the sequence (Q10570 whole entry, chain 1 of 4) above
CPSF160FL;WDR33 M1-K410 R49A/K50A;CPSF30 ZF1-3, sequence (Q9C0J8 1-410 R49A/K50A, chain 2 of 3): as the sequence (Q9C0J8 1-410, chain 2 of 4) above, with R49A, K50A counted along it
CPSF160FL;WDR33 M1-K410 R49A/K50A;CPSF30 ZF1-3, sequence (O95639 1-117, chain 3 of 3): as the sequence (O95639 1-117, chain 3 of 3) above

[6] = target: T1, CPSF160FL;WDR33 M1-K410;CPSF30FL;Fip1FL; test: fluorescence polarization; error 0.09 in text, 0.90 in Table 2; 20 mM Tris pH 7.5, 150 mM NaCl, 1 mM DTT, 0.05% Tween 20, 25 C, 0.1 nM labelled RNA; settings: protein: recombinant;recombinant;recombinant;recombinant; tags: His6 (438B vector; Ni-NTA and Streptactin purified);;; copies: 1;1;1;1; label: 5' Atto532

Row | Binder | Kd [1] [nM] | Kd [2] [nM] | Kd [3] [nM] | Kd [4] [nM] | Kd [5] [nM] | Kd [6] [nM]
1 | CACACAAGAAAGGCAA (ssRNA) [L3 PAS RNA mutant (AAGAAA)] | 70 ± 6 | 43 ± 2 | 120 ± 23 | – | – | –
2 | CACACAAUAAAGGCAA (ssRNA) [L3 PAS RNA wild-type (AAUAAA)] | 0.11 ± 0.03 | < 0.1 | – | 7.78 ± 0.78 | 2.42 ± 0.66 | 0.65 ± 0.09
